Data from patent US20070202116A1, “Treatment of micro-organism infection” (priority 2001, published 2007).
Where two headings read alike, the source gives them in different places.

Assays:
[1] = test system: EMRSA strains, vancomycin resistant subpopulations, Linzolid resistant strains; test: Checkerboard MIC / FIC / FIX of vancomycin and Aurograb (Tables 9, 10); format: cell-based, S. aureus; settings: for MIC In combination: VAN with Aurograb
Protocol: In order to determine the Minimum Inhibitory Concentration (MIC), the Fractional Inhibitory Concentration (FIC) and the FIX (fractional inhibitory index), the following was method was used.
The cells were diluted in Isosensitest Broth (Oxoid, UK) to give a final inoculum of […] cells per mL. […] To this was added exogenous Aurograb in the range 0.3-25 μg/ml in a checkerboard formation. A negative control series was also prepared containing Aurograb formulation buffer alone. Cultures were incubated for 48 hours at 37° C.
The minimum inhibitory concentration (MIC) was defined as the lowest concentration of agent at which no bacterial growth occurred and was determined by spectrophotometric evaluation of the lack of turbidity (growth) in culture.
Fractional inhibitory concentrations (FIC) and FIX values were calculated. Synergistic activity between the two agents was defined as an FIX value ≦0.5. Indifferent activity was defined as a value of 0.5-4, and a value of ≧4 defined antagonism.
The MIC (Alone) column indicates the minimum inhibitory concentration of the agent when administered alone. The MIC (In combination) column indicates the minimum inhibitory concentration of each drug when used in combination.

EMRSA-15 [2] = test: Data Set 1: murine sub-lethal infection, Aurograb alone; format: in vivo, S. aureus
Description: The murine model of staphylococcal infection is widely used and is routinely used in the assessment of antimicrobial drugs. It is a good predictor of efficacy in infected humans since S. aureus is introduced intravenously to create a bacteraemia, from which the pathogen spreads to other organs, including the kidney, liver and spleen.
Method: 20 female CD-1 mice were given a sub-lethal challenge (1.3×10^7 cfu) of a methicillin-resistant, vancomycin-sensitive strain of S. aureus (EMRSA-15, Typed Hospital Isolate, Central Manchester Healthcare Trust) in 100 μl iv bolus (all iv injections given via the lateral tail vein). 1 hour later, two groups of 10 mice, received, as 100 μl iv bolus: • 1. formulation buffer (Arginine-Urea), as negative control or • 2. Aurograb (2.0 mg/kg) in formulation buffer.
All animals were sacrificed after a further 48 h and viable cfu per gram of organ were determined.

EMRSA-15 [3] = format: in vivo, S. aureus
Protocol: Methods: 60 female CD-1 mice (22-24 g) were given 1×10^7 cfu of EMRSA-15 as a 100 μl iv bolus.
All mice were terminated at 48 hours for culture of kidney, liver and spleen.
Results: expressed as log cfu per gram of tissue, unless the majority of mice (>5) were cleared (ie organs were culture-negative). N/A=not applicable. (Table 7)

EMRSA-15 [4] = format: in vivo, S. aureus; remark: listed apart in the source
Protocol: Method: 60 female CD-I mice (22-24 g) were given S. aureus (a fresh clinical isolate of EMRSA-15) at a dose of 8×10^7 cfu in a 100 μl iv bolus.
All mice were terminated at 48 hours for culture of kidney, liver and spleen. Mice fatalities prior to the 48 hour cull were not subject to organ colony counts.

human blood = test: Blood compatibility study (haemolysis); settings: human blood, 37° C., 1 hour; 0.1 mg/ml
Protocol: This study was carried out by Biochemical Pharmacology department at Inveresk Research, Scotland, in order to assess the suitability of Aurograb for intravenous administration.
Blood samples were taken from healthy human volunteers, transferred to tubes containing Aurograb, Aurograb vehicle, saponin or saline and incubated at 37° C. for 1 hour. After centrifugation, the amount of haemoglobin in the supernatant was then assessed to determine haemolysis.

[5] = CD-1 mice, 1.3×10^7 cfu EMRSA-15 iv, Aurograb 2 mg/kg iv 1 hour later, 48 h
[6] = Group 4: Aurograb 2.0 mg/kg alone iv, 48 hours
[7] = Group 5: Aurograb 0.2 mg/kg alone iv, 10 mice
[8] = Group 5: Aurograb 0.2 mg/kg alone iv, 48 hours
[9] = Group 5: Aurograb 2.0 mg/kg alone iv, 48 hours

B1: Aurograb: human genetic recombinant antibody (scFv with histidine tag, SEQ ID NO: 2) binding GrfA, a staphylococcal ABC transporter protein (protein)
scFv: MAKVQLLQSATEVKKPGASVKVSCKAYGYTFTDYGITWVRQAPGQGLEWMGWISAYNGYTNYAQKFQDRITMTTDASTSTAYMELRSLRPDDTAVLYCARDREDASLLRDGHWGQGTLVTVSSGGGGSGGGGSGGGGSGGGGSETTLTQSPGTLSLSPGERATLSCRASQIVSSSYLAWYQQKPGQAPRLLIYGASSRATGIPDRFSGSGSGTDFTLTISKLEPEDFAVYYCQHYGSSSPWTSRPRDQSDIKRAAALEHHHHHH
modifications: histidine tag; human single chain (scFv) recombinant antibody
FIC ([1]; EMRSA strain 1): 0.006
MIC Alone ([1]; EMRSA strain 1): 125 µg/mL
MIC In combination ([1]; EMRSA strain 1): 0.75 µg/mL
FIC ([1]; EMRSA strain 1A): 0.05
MIC Alone ([1]; EMRSA strain 1A): 250 µg/mL
MIC In combination ([1]; EMRSA strain 1A): 12.5 µg/mL
FIC ([1]; EMRSA strain 2): 0.006
MIC Alone ([1]; EMRSA strain 2): 125 µg/mL
MIC In combination ([1]; EMRSA strain 2): 0.75 µg/mL
FIC ([1]; EMRSA strain 2A): 0.05
MIC Alone ([1]; EMRSA strain 2A): 250 µg/mL
MIC In combination ([1]; EMRSA strain 2A): 12.5 µg/mL
FIC ([1]; EMRSA strain 3): 0.012
MIC Alone ([1]; EMRSA strain 3): 250 µg/mL
MIC In combination ([1]; EMRSA strain 3): 3 µg/mL
FIC ([1]; EMRSA strain 4): 0.0026
MIC Alone ([1]; EMRSA strain 4): 125 µg/mL
MIC In combination ([1]; EMRSA strain 4): 0.325 µg/mL
FIC ([1]; EMRSA strain 5): 0.001
MIC Alone ([1]; EMRSA strain 5): 250 µg/mL
MIC In combination ([1]; EMRSA strain 5): 0.325 µg/mL
FIC ([1]; EMRSA strain 6): 0.0026
MIC Alone ([1]; EMRSA strain 6): 125 µg/mL
MIC In combination ([1]; EMRSA strain 6): 0.325 µg/mL
FIC ([1]; EMRSA strain 7): 0.0026
MIC Alone ([1]; EMRSA strain 7): 125 µg/mL
MIC In combination ([1]; EMRSA strain 7): 0.325 µg/mL
FIC ([1]; EMRSA strain 8): 0.0013
MIC Alone ([1]; EMRSA strain 8): 250 µg/mL
MIC In combination ([1]; EMRSA strain 8): 0.325 µg/mL
FIC ([1]; EMRSA strain 8A): 0.05
MIC Alone ([1]; EMRSA strain 8A): 250 µg/mL
MIC In combination ([1]; EMRSA strain 8A): 12.5 µg/mL
FIC ([1]; EMRSA strain 9): 0.006
MIC Alone ([1]; EMRSA strain 9): 125 µg/mL
MIC In combination ([1]; EMRSA strain 9): 0.75 µg/mL
FIC ([1]; EMRSA strain 10): 0.012
MIC Alone ([1]; EMRSA strain 10): 125 µg/mL
MIC In combination ([1]; EMRSA strain 10): 1.5 µg/mL
FIC ([1]; EMRSA strain 11): 0.006
MIC Alone ([1]; EMRSA strain 11): 125 µg/mL
MIC In combination ([1]; EMRSA strain 11): 0.75 µg/mL
FIC ([1]; EMRSA strain 11A): 0.05
MIC Alone ([1]; EMRSA strain 11A): 250 µg/mL
MIC In combination ([1]; EMRSA strain 11A): 12.5 µg/mL
FIC ([1]; EMRSA strain 12): 0.0013
MIC Alone ([1]; EMRSA strain 12): 250 µg/mL
MIC In combination ([1]; EMRSA strain 12): 0.325 µg/mL
FIC ([1]; EMRSA strain 12A): 0.003
MIC Alone ([1]; EMRSA strain 12A): 250 µg/mL
MIC In combination ([1]; EMRSA strain 12A): 0.75 µg/mL
FIC ([1]; EMRSA strain 13): 0.006
MIC Alone ([1]; EMRSA strain 13): 250 µg/mL
MIC In combination ([1]; EMRSA strain 13): 1.5 µg/mL
FIC ([1]; EMRSA strain 14): 0.012
MIC Alone ([1]; EMRSA strain 14): 125 µg/mL
MIC In combination ([1]; EMRSA strain 14): 1.5 µg/mL
FIC ([1]; EMRSA strain 15): 0.012
MIC Alone ([1]; EMRSA strain 15): 125 µg/mL
MIC In combination ([1]; EMRSA strain 15): 1.5 µg/mL
FIC ([1]; EMRSA strain 15A): 0.006
MIC Alone ([1]; EMRSA strain 15A): 250 µg/mL
MIC In combination ([1]; EMRSA strain 15A): 0.75 µg/mL
FIC ([1]; EMRSA strain 16): 0.012
MIC Alone ([1]; EMRSA strain 16): 250 µg/mL
MIC In combination ([1]; EMRSA strain 16): 1.5 µg/mL
FIC ([1]; EMRSA strain 17): 0.006
MIC Alone ([1]; EMRSA strain 17): 250 µg/mL
MIC In combination ([1]; EMRSA strain 17): 0.75 µg/mL
FIC ([1]; NARSA 1 (Hiramatsu)): 0.001
MIC Alone ([1]; NARSA 1 (Hiramatsu)): 250 µg/mL
MIC In combination ([1]; NARSA 1 (Hiramatsu)): 0.325 µg/mL
FIC ([1]; NARSA 2 (Hiramatsu)): 0.001
MIC Alone ([1]; NARSA 2 (Hiramatsu)): 250 µg/mL
MIC In combination ([1]; NARSA 2 (Hiramatsu)): 0.325 µg/mL
FIC ([1]; NARSA 12 (France)): 0.003
MIC Alone ([1]; NARSA 12 (France)): 250 µg/mL
MIC In combination ([1]; NARSA 12 (France)): 0.75 µg/mL
FIC ([1]; NARSA 17 (New York)): 0.001
MIC Alone ([1]; NARSA 17 (New York)): 250 µg/mL
MIC In combination ([1]; NARSA 17 (New York)): 0.325 µg/mL
FIC ([1]; NARSA 119 (Linezolid R)): 0.02
MIC Alone ([1]; NARSA 119 (Linezolid R)): 125 µg/mL
MIC In combination ([1]; NARSA 119 (Linezolid R)): 3 µg/mL
FIC ([1]; NARSA 120 (Linezolid R)): 0.02
MIC Alone ([1]; NARSA 120 (Linezolid R)): 125 µg/mL
MIC In combination ([1]; NARSA 120 (Linezolid R)): 3 µg/mL
FIC ([1]; NARSA 121 (Linezolid R)): 0.02
MIC Alone ([1]; NARSA 121 (Linezolid R)): 125 µg/mL
MIC In combination ([1]; NARSA 121 (Linezolid R)): 3 µg/mL
Kidney Log cfu/g tissue (EMRSA-15 [2]; [5]): 7.20 ± 1.15 Log cfu/g tissue
Liver Log cfu/g tissue (EMRSA-15 [2]; [5]): 3.63 ± 0.68 Log cfu/g tissue
Spleen Log cfu/g tissue (EMRSA-15 [2]; [5]): 3.79 ± 0.82 Log cfu/g tissue
Reduction in viable organisms found in all three organs (EMRSA-15 [2]; kidney, liver and spleen, Aurograb 2 mg/kg vs formulation buffer): 10 fold
Spleen, number of mice cleared (EMRSA-15 [3]; Group 4: Aurograb 2.0 mg/kg alone iv, 10 mice): 4
Kidney Log cfu/g of tissue (EMRSA-15 [3]; [6]): 7.30 ± 1.26 Log cfu/g of tissue
Spleen Log cfu/g of tissue (EMRSA-15 [3]; [6]): 3.54 ± 0.61 Log cfu/g of tissue
Liver, number of mice cleared (EMRSA-15 [3]; [7]): 2
Spleen, number of mice cleared (EMRSA-15 [3]; [7]): 3
Kidney Log cfu/g of tissue (EMRSA-15 [3]; [8]): 7.50 ± 1.53 Log cfu/g of tissue
Liver Log cfu/g of tissue (EMRSA-15 [3]; [8]): 4.28 ± 1.28 Log cfu/g of tissue
Spleen Log cfu/g of tissue (EMRSA-15 [3]; [8]): 3.91 ± 0.87 Log cfu/g of tissue
Mortality (EMRSA-15 [4]; Aurograb alone 2.0 mg/kg, 10 mice, untreated group 7 deaths): 4 deaths
Survivors at 24 h (n = 10) (EMRSA-15 [4]; Group 5: Aurograb 2.0 mg/kg alone iv, 8×10^7 cfu): 6
Kidney Log cfu/g tissue (EMRSA-15 [4]; [9]): 7.87 ± 1 Log cfu/g tissue
Liver Log cfu/g tissue (EMRSA-15 [4]; [9]): 5.18 ± 0.57 Log cfu/g tissue
Spleen Log cfu/g tissue (EMRSA-15 [4]; [9]): 5.53 ± 2.74 Log cfu/g tissue
Haemolysis classification (ASTM F756-93) (human blood): non-haemolytic
